These are literature values, as cited in PMC11267001.

In the series the target is DOCK5ΔC/ELMO1 DOCK5 1-1642 (Homo sapiens) (UniProt Q9H7D0).

The term Kd denotes the concentration at which binding is half-saturated. As for RhoG (from UniProt P84095), the Kd was 10 µM.
